From patent US11499162B2, “Plants having increased tolerance to herbicides” (BASF SE, priority 2016, dated 2022)
Substitutions are numbered along the chain they refer to. In names and notes the source's numbering stands.

B1: Y85LL88AF89AL92AY93VQ96TD128GM155VF157L: mutated TriA variant of SEQ ID NO: 2 (protein)
chain: MQTLSIQHGTLVTMDQYRRVLGDSWVHVQDGRIVALGVHAESVPPPADRVIDARGKVVLPGFINAHTHVNQILLRGGPSHGRQLLDWAANVAVPGTKAMRPEDVAVAVRLYCAEAVRSGITTINDNAGSAIYPGNIEAAMAVYGEVGVRVVYARVFLDRMDGRIQGYVDALKARSPQVELCSIMEETAVAKDRITALSDQYHGTAGGRISVWPAPAITPAVTVEGMRWAQAFARDRAVMWTLHMAESDHDERLHWMSPAEYMECYGLLDERLQVAHCVYFDRKDVRLLHRHNVKVASQVVSNAYLGSGVAPVPEMVERGMAVGIGTDDGNCNDSVNMIGDMKFMAHIHRAVHRDADVLTPEKILEMATIDGARSLGMDHEIGSIETGKRADLILLDLRHPQTTPHHHLAATIVFQAYGNEVDTVLIDGNVVMENRRLSFLPPERELAFLEEAQSRATAILQRANMVANPAWRSL
modifications: Pseudomonas
B2: L74V: mutated TriA variant of SEQ ID NO: 2 (protein)
chain: B1 chain with L74V, L85Y, A88L, A89F, A92L, V93Y, T96Q, G128D, V155M, L157F
modifications: Pseudomonas
B3: F157T: mutated TriA variant of SEQ ID NO: 2 (protein)
chain: B1 chain with L85Y, A88L, A89F, A92L, V93Y, T96Q, G128D, V155M, L157T
modifications: Pseudomonas
B4: D128P: mutated TriA variant of SEQ ID NO: 2 (protein)
chain: B1 chain with L85Y, A88L, A89F, A92L, V93Y, T96Q, G128P, V155M, L157F
modifications: Pseudomonas
B5: N70VD128SM155V: mutated TriA variant of SEQ ID NO: 2 (protein)
chain: B1 chain with N70V, L85Y, A88L, A89F, A92L, V93Y, T96Q, G128S, L157F
modifications: Pseudomonas
B6: N70VD128TM155V: mutated TriA variant of SEQ ID NO: 2 (protein)
chain: B1 chain with N70V, L85Y, A88L, A89F, A92L, V93Y, T96Q, G128T, L157F
modifications: Pseudomonas
B7: L88VL92I: mutated TriA variant of SEQ ID NO: 2 (protein)
chain: B1 chain with L85Y, A88V, A89F, A92I, V93Y, T96Q, G128D, V155M, L157F
modifications: Pseudomonas
B8: V69L: mutated TriA variant of SEQ ID NO: 2 (protein)
chain: B1 chain with V69L, L85Y, A88L, A89F, A92L, V93Y, T96Q, G128D, V155M, L157F
modifications: Pseudomonas
B9: V69S: mutated TriA variant of SEQ ID NO: 2 (protein)
chain: B1 chain with V69S, L85Y, A88L, A89F, A92L, V93Y, T96Q, G128D, V155M, L157F
modifications: Pseudomonas
B10: Q71LL88AV91AL92VF157L: mutated TriA variant of SEQ ID NO: 2 (protein)
chain: B1 chain with Q71L, L85Y, A89F, V91A, A92V, V93Y, T96Q, G128D, V155M
modifications: Pseudomonas
B11: L88AF157L: mutated TriA variant of SEQ ID NO: 2 (protein)
chain: B1 chain with L85Y, A89F, A92L, V93Y, T96Q, G128D, V155M
modifications: Pseudomonas
B12: L88AF157I: mutated TriA variant of SEQ ID NO: 2 (protein)
chain: B1 chain with L85Y, A89F, A92L, V93Y, T96Q, G128D, V155M, L157I
modifications: Pseudomonas
B13: L88VL92V: mutated TriA variant of SEQ ID NO: 2 (protein)
chain: B1 chain with L85Y, A88V, A89F, A92V, V93Y, T96Q, G128D, V155M, L157F
modifications: Pseudomonas
B14: D128V: mutated TriA variant of SEQ ID NO: 2 (protein)
chain: B1 chain with L85Y, A88L, A89F, A92L, V93Y, T96Q, G128V, V155M, L157F
modifications: Pseudomonas
B15: L88VL92IF157V: mutated TriA variant of SEQ ID NO: 2 (protein)
chain: B1 chain with L85Y, A88V, A89F, A92I, V93Y, T96Q, G128D, V155M, L157V
modifications: Pseudomonas
B16: V69A: mutated TriA variant of SEQ ID NO: 2 (protein)
chain: B1 chain with V69A, L85Y, A88L, A89F, A92L, V93Y, T96Q, G128D, V155M, L157F
modifications: Pseudomonas
B17: D128G: mutated TriA variant of SEQ ID NO: 2 (protein)
chain: B1 chain with L85Y, A88L, A89F, A92L, V93Y, T96Q, V155M, L157F
modifications: Pseudomonas
B18: N70LQ71ID128IM155VF157L: mutated TriA variant of SEQ ID NO: 2 (protein)
chain: B1 chain with N70L, Q71I, L85Y, A88L, A89F, A92L, V93Y, T96Q, G128I
modifications: Pseudomonas
B19: Q96V: mutated TriA variant of SEQ ID NO: 2 (protein)
chain: B1 chain with L85Y, A88L, A89F, A92L, V93Y, T96V, G128D, V155M, L157F
modifications: Pseudomonas
B20: N70LQ71ID128IM155V: mutated TriA variant of SEQ ID NO: 2 (protein)
chain: B1 chain with N70L, Q71I, L85Y, A88L, A89F, A92L, V93Y, T96Q, G128I, L157F
modifications: Pseudomonas
B21: N70VM155V: mutated TriA variant of SEQ ID NO: 2 (protein)
chain: B1 chain with N70V, L85Y, A88L, A89F, A92L, V93Y, T96Q, G128D, L157F
modifications: Pseudomonas
B22: L88VL92VF157A: mutated TriA variant of SEQ ID NO: 2 (protein)
chain: B1 chain with L85Y, A88V, A89F, A92V, V93Y, T96Q, G128D, V155M, L157A
modifications: Pseudomonas
B23: Q71LL88AV91AL92V: mutated TriA variant of SEQ ID NO: 2 (protein)
chain: B1 chain with Q71L, L85Y, A89F, V91A, A92V, V93Y, T96Q, G128D, V155M, L157F
modifications: Pseudomonas
B24: N70LQ71LF157A: mutated TriA variant of SEQ ID NO: 2 (protein)
chain: MQTLSIQHGTLVTMDQYRRVLGDSWVHVQDGRIVALGVHAESVPPPADRVIDARGKVVLPGFINAHTHVLLILLRGGPSHGRQLYDWLFNVLYPGQKAMRPEDVAVAVRLYCAEAVRSGITTINDNADSAIYPGNIEAAMAVYGEVGVRVVYARMFADRMDGRIQGYVDALKARSPQVELCSIMEETAVAKDRITALSDQYHGTAGGRISVWPAPAITPAVTVEGMRWAQAFARDRAVMWTLHMAESDHDERLHWMSPAEYMECYGLLDERLQVAHCVYFDRKDVRLLHRHNVKVASQVVSNAYLGSGVAPVPEMVERGMAVGIGTDDGNCNDSVNMIGDMKFMAHIHRAVHRDADVLTPEKILEMATIDGARSLGMDHEIGSIETGKRADLILLDLRHPQTTPHHHLAATIVFQAYGNEVDTVLIDGNVVMENRRLSFLPPERELAFLEEAQSRATAILQRANMVANPAWRSL
modifications: Pseudomonas
B25: N70IQ71L92VM155AF157A: mutated TriA variant of SEQ ID NO: 2 (protein)
chain: B24 chain with L70I, L92V, M155A
modifications: Pseudomonas
B26: N70IQ71IF157A: mutated TriA variant of SEQ ID NO: 2 (protein)
chain: B24 chain with L70I, L71I
modifications: Pseudomonas
B27: Q71LV91AL92V: mutated TriA variant of SEQ ID NO: 2 (protein)
chain: B24 chain with L70N, V91A, L92V, A157F
modifications: Pseudomonas
B28: Q71LV91A: mutated TriA variant of SEQ ID NO: 2 (protein)
chain: B24 chain with L70N, V91A, A157F
modifications: Pseudomonas
B29: N70VQ71L92VM155AF157A: mutated TriA variant of SEQ ID NO: 2 (protein)
chain: B24 chain with L70V, L92V, M155A
modifications: Pseudomonas

Type: biochemical
Conditions: pH 7.2
How it was run: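 % degradation measured against empty-vector control by UPLC-HR-MS, with product identity confirmed by exact mass and MS-MS. Conditions: 25 mM sodium phosphate pH 7.2, 30 °C, substrates at 1–10 nM. Enzyme source: TriA-expressing E. coli resting cells incubated with azines, melamine or atrazine.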

Molecule	Degradation in % of 6-cyclopentyl-N4-(2,3,4,5,6-pentafluorophenyl)-1,3,5-triazine-2,4-diamine	Degradation in % of Melamine
B1	13%	6%
B2	0%	3%
B3	0%	60%
B4	0%	0%
B5	0%	0%
B6	1%	4%
B7	0%	8%
B8	0%	0%
B9	3%	5%
B10	1%	4%
B11	0%	2%
B12	0%	0%
B13	0%	0%
B14	2%	0%
B15	0%	5%
B16	0%	5%
B17	0%	0%
B18	0%	3%
B19	0%	4%
B20	0%	9%
B21	0%	0%
B22	0%	0%
B23	1%	0%
B24	0%	2%
B25	1%	0%
B26	3%	0%
B27	3%	7%
B28	0%	0%
B29	1%	0%
